Measurements taken from paper doi:10.1101/433045 (bioRxiv, 2020).
Substitutions are numbered along the chain they refer to. No end group written: not given here. FAM = 5,6-carboxyfluorescein

B1: Nrd1 CID (domain or fragment)
chain: MQQDDDFQNFVATLESFKDLKSGISGSRIKKLTTYALDHIDIESKIISLIIDYSRLCPDSHKLGSLYIIDSIGRAYLDETRSNSNSSSNKPGTCAHAINTLGEVIQELLSDAIAKSNQDHKEKIRMLLDIWDRSGLFQKSYLNAIRSKCFAMD
B2: Sen1 NIM peptide (peptide)
peptide: {FAM}-DDDEDDYTPSIS

Legend:
Assay in all cases: fluorescence polarisation
[1] = molecular target: Trf4 NIM peptide (S. cerevisiae)
[2] = molecular target: T1, Nrd1 CID (S. cerevisiae, UniProt P53617 1-153)
T1 sequence: B1 chain

[3] = molecular target: T2, Nrd1 CID L20D (S. cerevisiae, UniProt P53617 1-153, L20D)
T2 sequence: B1 chain with L20D

[4] = molecular target: T3, Nrd1 CID K21D (S. cerevisiae, UniProt P53617 1-153, K21D)
T3 sequence: B1 chain with K21D

[5] = molecular target: T4, Nrd1 CID S25D (S. cerevisiae, UniProt P53617 1-153, S25D)
T4 sequence: B1 chain with S25D

[6] = molecular target: T5, Nrd1 CID R28D (S. cerevisiae, UniProt P53617 1-153, R28D)
T5 sequence: B1 chain with R28D

Binder | Kd [1] [nM] | Kd [2] [nM] | binding result [3] | binding result [4] | binding result [5] | binding result [6]
B1 | 900 | – | – | – | – | –
B2 | – | 1200 ± 20 | binds | binds | binds | binds
